Data from patent publication US20080026996A1, “Selective Vpac2 Receptor Reptide Agonists” (ELI LILLY AND COMPANY, priority 2004, published 2008).
Read-outs that look alike come from different tables or passages of the source. Where no end group is shown, it is not given here. [ ]: non-standard residue; d: D form. The star is where a group is joined. hArg = N=C(N)NCCCC[C@H](N)C(=O)O; Hexanoyl = CCCCCC(=O)*

T1: human VPAC1 (Homo sapiens, UniProt P32241)
T1 sequence (P32241 31-457): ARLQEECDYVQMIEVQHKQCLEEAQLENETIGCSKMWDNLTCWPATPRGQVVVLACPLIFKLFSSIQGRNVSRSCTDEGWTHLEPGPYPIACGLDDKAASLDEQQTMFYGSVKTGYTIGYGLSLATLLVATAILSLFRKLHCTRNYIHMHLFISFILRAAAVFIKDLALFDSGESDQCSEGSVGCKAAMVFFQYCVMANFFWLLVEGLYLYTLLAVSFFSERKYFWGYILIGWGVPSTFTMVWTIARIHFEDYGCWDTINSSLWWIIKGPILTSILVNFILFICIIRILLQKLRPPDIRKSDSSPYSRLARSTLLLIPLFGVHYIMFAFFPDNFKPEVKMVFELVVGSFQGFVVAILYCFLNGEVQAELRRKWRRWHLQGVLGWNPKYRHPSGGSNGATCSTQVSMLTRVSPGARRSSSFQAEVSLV

T2: human VPAC2 (Homo sapiens, UniProt P41587)
T2 construct: expressed in transfected cells
T2 sequence (P41587 24-438): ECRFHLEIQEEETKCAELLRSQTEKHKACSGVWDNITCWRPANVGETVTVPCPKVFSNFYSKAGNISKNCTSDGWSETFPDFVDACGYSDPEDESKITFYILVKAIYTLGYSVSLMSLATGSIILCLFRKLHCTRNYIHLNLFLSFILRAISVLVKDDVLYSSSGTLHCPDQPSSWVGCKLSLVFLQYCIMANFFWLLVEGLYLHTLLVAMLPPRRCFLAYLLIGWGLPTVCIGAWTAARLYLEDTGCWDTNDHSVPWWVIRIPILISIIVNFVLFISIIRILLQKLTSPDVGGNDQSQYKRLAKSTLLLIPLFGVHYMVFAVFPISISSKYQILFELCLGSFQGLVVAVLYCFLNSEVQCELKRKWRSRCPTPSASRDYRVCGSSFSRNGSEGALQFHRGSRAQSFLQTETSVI

T3: human PAC1 (Homo sapiens, UniProt P41586)
T3 sequence (P41586 21-468): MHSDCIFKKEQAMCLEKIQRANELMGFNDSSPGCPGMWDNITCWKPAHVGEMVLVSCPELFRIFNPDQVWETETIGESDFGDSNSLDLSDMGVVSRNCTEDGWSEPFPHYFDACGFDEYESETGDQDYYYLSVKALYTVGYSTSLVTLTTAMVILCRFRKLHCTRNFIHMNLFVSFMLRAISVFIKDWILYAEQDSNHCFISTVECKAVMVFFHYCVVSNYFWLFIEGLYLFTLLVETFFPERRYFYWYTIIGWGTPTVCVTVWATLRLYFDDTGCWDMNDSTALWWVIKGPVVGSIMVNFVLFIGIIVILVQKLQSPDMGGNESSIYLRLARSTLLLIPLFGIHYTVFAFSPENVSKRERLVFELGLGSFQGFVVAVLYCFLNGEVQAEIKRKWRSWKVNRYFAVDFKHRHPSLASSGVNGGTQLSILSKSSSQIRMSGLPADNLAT

T4: human VPAC2 receptor (human, UniProt P41587 24-438)
T4 sequence (looked up): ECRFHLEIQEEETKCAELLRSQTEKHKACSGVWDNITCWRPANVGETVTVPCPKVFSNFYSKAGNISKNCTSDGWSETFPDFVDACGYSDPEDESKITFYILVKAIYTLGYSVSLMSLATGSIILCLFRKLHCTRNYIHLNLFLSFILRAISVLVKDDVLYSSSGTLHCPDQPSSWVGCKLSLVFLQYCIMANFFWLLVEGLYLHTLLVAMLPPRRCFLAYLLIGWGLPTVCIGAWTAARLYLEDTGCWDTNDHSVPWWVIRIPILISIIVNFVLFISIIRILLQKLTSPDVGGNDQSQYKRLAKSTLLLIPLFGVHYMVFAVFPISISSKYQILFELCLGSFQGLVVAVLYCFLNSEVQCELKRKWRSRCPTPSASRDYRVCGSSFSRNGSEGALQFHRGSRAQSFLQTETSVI

T5: human VPAC1 receptor (human, UniProt P32241 31-457)
T5 sequence (looked up): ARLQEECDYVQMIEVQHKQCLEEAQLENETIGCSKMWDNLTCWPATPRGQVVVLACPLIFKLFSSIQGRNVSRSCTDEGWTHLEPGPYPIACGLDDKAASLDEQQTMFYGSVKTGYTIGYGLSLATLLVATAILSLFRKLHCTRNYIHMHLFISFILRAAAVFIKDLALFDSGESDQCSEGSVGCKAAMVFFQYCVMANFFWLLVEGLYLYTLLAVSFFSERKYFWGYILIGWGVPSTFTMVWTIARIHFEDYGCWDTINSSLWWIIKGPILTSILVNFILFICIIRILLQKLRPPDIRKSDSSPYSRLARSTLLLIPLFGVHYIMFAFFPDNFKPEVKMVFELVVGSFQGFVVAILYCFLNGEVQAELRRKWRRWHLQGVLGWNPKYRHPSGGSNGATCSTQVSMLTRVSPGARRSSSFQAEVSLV

T6: human PAC1 receptor (human, UniProt P41586 21-468)
T6 sequence (looked up): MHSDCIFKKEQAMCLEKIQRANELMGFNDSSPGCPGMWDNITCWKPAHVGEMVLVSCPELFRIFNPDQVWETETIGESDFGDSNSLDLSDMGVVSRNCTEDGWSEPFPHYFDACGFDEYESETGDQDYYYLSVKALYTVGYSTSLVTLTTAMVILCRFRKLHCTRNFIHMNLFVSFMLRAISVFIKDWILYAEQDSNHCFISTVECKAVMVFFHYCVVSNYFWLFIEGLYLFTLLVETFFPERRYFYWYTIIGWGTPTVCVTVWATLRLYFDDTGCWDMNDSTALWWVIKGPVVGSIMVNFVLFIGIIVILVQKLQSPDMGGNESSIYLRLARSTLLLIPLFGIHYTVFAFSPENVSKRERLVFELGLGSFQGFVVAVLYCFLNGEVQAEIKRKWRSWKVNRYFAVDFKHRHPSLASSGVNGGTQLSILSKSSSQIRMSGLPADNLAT


Tests used:
[1] = biological target: T1, human VPAC1; experiment: Filter binding assay, membranes of cells transiently transfected with human VPAC1, 125I-labeled VIP tracer (Table 2); set-up: expressed in transfected cells; details: read-out: Human VPAC1 Receptor Binding
Outline: (§1)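 Scintillation counting of filter-retained radioligand gave the read-out. Compounds competed with the labelled tracer (about 40000 cpm) for 2.5 μg membranes during 1 hour of shaking in HEPES pH 7.4 buffer containing 0.5% BSA.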

[2] = biological target: T2, human VPAC2; experiment: Alpha screen cAMP in vitro potency, human VPAC2 receptor; type: cell-based; details: cAMP generation; single result from two analyses performed in a single run; read-out: Human VPAC2 Receptor: Alpha Screen EC50
Outline: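 Dissociated cells, 50,000 per point in stimulation buffer, were incubated with stimuli and AlphaScreen acceptor beads for 60 min.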

[3] = biological target: T2, human VPAC2; experiment: Filter binding assay, membranes of stable VPAC2 cell line, 125I-labeled VIP tracer (Table 2); details: read-out: Human VPAC2 Receptor Binding
Outline: as §1

[4] = Rat serum stability studies (remaining active peptide by DiscoveRx cAMP on CHO-VPAC2 cells); type: in vitro ADME
Outline: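 Rat serum, 18 h: +aprotinin aliquot at 4° C, no-aprotinin aliquot at 37° C. Then 30 min RT step, supernatant removed, 1 h shaking at 300 rpm. DiscoveRx cAMP kit on CHO-VPAC2; EC50 from cAMP data vs standards.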

[5] = biological target: T3, human PAC1; experiment: Filter binding assay, membranes of cells transiently transfected with human PAC1, 125I-labeled PACAP-27 tracer (Table 2); set-up: expressed in transfected cells; details: read-out: Human PAC1 Receptor Binding
Outline: as §1

[6] = biological target: T4, human VPAC2 receptor; experiment: cell-based or functional assay
[7] = biological target: T5, human VPAC1 receptor; experiment: cell-based or functional assay
[8] = biological target: T6, human PAC1 receptor; experiment: cell-based or functional assay

Molecule | EC50 cAMP, DiscoveRx [6] [nM] | EC50 cAMP, DiscoveRx [7] [nM] | EC50 cAMP, Alpha Screen [6] [nM] | EC50 cAMP, DiscoveRx [8] [nM] | also measured
Hexanoyl-HSDALFTDNYTRLRKQVAAKKYLQSIKNKRYGGPSSGAPPPS [Agonist P289] |  |  |  |  | IC50 [1]: 260 nM; EC50 [2]: 0.16 nM; IC50 [3]: 0.38 nM; Rat Serum Stability (estimated purity in % after 18 hours) [4]: 0.04%; IC50 [5]: 324 nM
HSDAVFTDNYTRLRKQVAAIKYLQSIKNKRYGGPSSGAPPPS (not fully specified) [P19] | 9.03 | 2.9 |  |  | 
HSDIVFTDNYTRLRKQVAAKKYLQSIKNKRYGGPSSGAPPPS (not fully specified) [P50] | 19.2 | 111 |  |  | 
H[dA]DAVFTDNYTRLRKQVAAKKYLQSIKNKRYGGPSSGAPPPS [P47] | 1.07 | 3.6 | 1.39 | 136 | 
HSDAVFTDNYTRLRKQVAARKYLQSIKNKRYGGPSSGAPPPS [P20] | 2.13 | 2 | 2.77 | > 25 | 
HSDAVFTDNYTRLRKQVAASKYLQSIKNKRYGGPSSGAPPPS [P21] | 6.87 | 10.7 | 11.6 | > 100 | 
HSDAVFTDNYTRLRKQVAAKKYLQSIRNKRYGGPSSGAPPPS [P23] | 1.41 | 0.9 | 2.3 | 98.3 | 
HSDAVFTDNYTRLRKQVAAKKYLQSIKNRRYGGPSSGAPPPS [P25] | 3.02 | 2.7 |  | 137 | 
HSDAVFTDNYTRLRKQVAA[hArg]KYLQSIKNKRYGGPSSGAPPPS (ends and bridges not checked) [P18] |  | 0.4 |  | > 50 | EC50 cAMP, DiscoveRx ([8]; record 2): 435 nM
